Measured values taken from the supplement of paper PMC10567573.

B1: DVL3 (parent)
chain: SDVVDWLYHNVEGFTDRREARKYA

Variants of: B1
Assay: protein stability index of a GFP-peptide fusion (GPS, HEK-293T) (PSI 1-6); higher = more stable
Settings: c terminus: a fixed tail appended
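Note: lentivirally expressed fusions sorted by FACS into six bins by GFP to DsRed ratio, PSI derived from sequencing read proportions per bin multiplied by bin number.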

**Q.** Which protein stability index does the source give for SDVVDWLYHNVEGFTDPREARKYA [R17P] here?
**A.** 3.33

**Q.** For SDVVDWLYHNVEGFTDEREARKYA [R17E], which protein stability index is on record?
**A.** 3.82

**Q.** With SDVVDWLYHNVEGFTDDREARKYA [R17D] as the variant, how does the protein stability index read?
**A.** 3.56

**Q.** Which protein stability index does the source give for SDVVDWLYHNVEGFTDFREARKYA [R17F] here?
**A.** 2.16

**Q.** For SDVVDWLYHNVEGFTDKREARKYA [R17K], which protein stability index is on record?
**A.** 3.7

**Q.** For SDVVDWLYHNVEGFTDYREARKYA [R17Y], which protein stability index is on record?
**A.** 2.45

**Q.** Which protein stability index does the source give for SDVVDWLYHNVEGFTDMREARKYA [R17M] here?
**A.** 2.63

**Q.** Which protein stability index does the source give for SDVVDWLYHNVEGFTDVREARKYA [R17V] here?
**A.** 2.37

**Q.** Which protein stability index does the source give for SDVVDWLYHNVEGFTDAREARKYA [R17A] here?
**A.** 2.81

**Q.** With SDVVDWLYHNVEGFTDSREARKYA [R17S] as the variant, how does the protein stability index read?
**A.** 3.9

**Q.** With SDVVDWLYHNVEGFTDWREARKYA [R17W] as the variant, how does the protein stability index read?
**A.** 2

**Q.** With SDVVDWLYHNVEGFTDQREARKYA [R17Q] as the variant, how does the protein stability index read?
**A.** 3.67

**Q.** For SDVVDWLYHNVEGFTDHREARKYA [R17H], which protein stability index is on record?
**A.** 4.21

**Q.** For SDVVDWLYHNVEGFTDTREARKYA [R17T], which protein stability index is on record?
**A.** 3.09

**Q.** For SDVVDWLYHNVEGFTDNREARKYA [R17N], which protein stability index is on record?
**A.** 2.65

**Q.** For SDVVDWLYHNVEGFTDIREARKYA [R17I], which protein stability index is on record?
**A.** 1.82

**Q.** With SDVVDWLYHNVEGFTDCREARKYA [R17C] as the variant, how does the protein stability index read?
**A.** 3.43

**Q.** With SDVVDWLYHNVEGFTDLREARKYA [R17L] as the variant, how does the protein stability index read?
**A.** 2.69

**Q.** Which protein stability index does the source give for SDVVDWLYHNVEGFRDRREARKYA [T15R] here?
**A.** 2.91

**Q.** For SDVVDWLYHNVEGFNDRREARKYA [T15N], which protein stability index is on record?
**A.** 3.13

**Q.** For SDVVDWLYHNVEGFCDRREARKYA [T15C], which protein stability index is on record?
**A.** 2.67

**Q.** With SDVVDWLYHNVEGFADRREARKYA [T15A] as the variant, how does the protein stability index read?
**A.** 2.32

**Q.** Which protein stability index does the source give for SDVVDWLYHNVEGFIDRREARKYA [T15I] here?
**A.** 2.83

**Q.** Which protein stability index does the source give for SDVVDWLYHNVEGFFDRREARKYA [T15F] here?
**A.** 2.15

**Q.** For SDVVDWLYHNVEGFDDRREARKYA [T15D], which protein stability index is on record?
**A.** 3.04

**Q.** Which protein stability index does the source give for SDVVDWLYHNVEGFKDRREARKYA [T15K] here?
**A.** 2.56

**Q.** Which protein stability index does the source give for SDVVDWLYHNVEGFVDRREARKYA [T15V] here?
**A.** 2.85

**Q.** For SDVVDWLYHNVEGFMDRREARKYA [T15M], which protein stability index is on record?
**A.** 3.02

**Q.** Which protein stability index does the source give for SDVVDWLYHNVEGFPDRREARKYA [T15P] here?
**A.** 2.92

**Q.** Which protein stability index does the source give for SDVVDWLYHNVEGFQDRREARKYA [T15Q] here?
**A.** 3.21

**Q.** For SDVVDWLYHNVEGFLDRREARKYA [T15L], which protein stability index is on record?
**A.** 2.91

**Q.** With SDVVDWLYHNVEGFGDRREARKYA [T15G] as the variant, how does the protein stability index read?
**A.** 2.7

**Q.** For SDVVDWLYHNVEGFHDRREARKYA [T15H], which protein stability index is on record?
**A.** 3.23

**Q.** With SDVVDWLYHNVEGFYDRREARKYA [T15Y] as the variant, how does the protein stability index read?
**A.** 3.24

**Q.** For SDVVDWLYHNVEGFWDRREARKYA [T15W], which protein stability index is on record?
**A.** 2.74

**Q.** With SDVVDWLYHNVEGGTDRREARKYA [F14G] as the variant, how does the protein stability index read?
**A.** 3.96

**Q.** Which protein stability index does the source give for SDVVDWLYHNVEGNTDRREARKYA [F14N] here?
**A.** 3.61

**Q.** Which protein stability index does the source give for SDVVDWLYHNVEGKTDRREARKYA [F14K] here?
**A.** 4.76

**Q.** With SDVVDWLYHNVEGHTDRREARKYA [F14H] as the variant, how does the protein stability index read?
**A.** 3.27

**Q.** Which protein stability index does the source give for SDVVDWLYHNVEGDTDRREARKYA [F14D] here?
**A.** 3.95

**Q.** Which protein stability index does the source give for SDVVDWLYHNVEGRTDRREARKYA [F14R] here?
**A.** 2.56

**Q.** With SDVVDWLYHNVEGLTDRREARKYA [F14L] as the variant, how does the protein stability index read?
**A.** 3.11

**Q.** Which protein stability index does the source give for SDVVDWLYHNVEGPTDRREARKYA [F14P] here?
**A.** 3.61

**Q.** With SDVVDWLYHNVEGWTDRREARKYA [F14W] as the variant, how does the protein stability index read?
**A.** 3.18

**Q.** For SDVVDWLYHNVEGQTDRREARKYA [F14Q], which protein stability index is on record?
**A.** 3.86

**Q.** Which protein stability index does the source give for SDVVDWLYHNVEGTTDRREARKYA [F14T] here?
**A.** 3.87

**Q.** With SDVVDWLYHNVEGITDRREARKYA [F14I] as the variant, how does the protein stability index read?
**A.** 3.97

**Q.** With SDVVDWLYHNVEGSTDRREARKYA [F14S] as the variant, how does the protein stability index read?
**A.** 4.19

**Q.** With SDVVDWLYHNVEGETDRREARKYA [F14E] as the variant, how does the protein stability index read?
**A.** 4.77

**Q.** With SDVVDWLYHNVEGCTDRREARKYA [F14C] as the variant, how does the protein stability index read?
**A.** 3.04

**Q.** With SDVVDWLYHNVEGFTDRIEARKYA [R18I] as the variant, how does the protein stability index read?
**A.** 2.42

**Q.** Which protein stability index does the source give for SDVVDWLYHNVEGFTDRAEARKYA [R18A] here?
**A.** 3.19

**Q.** Which protein stability index does the source give for SDVVDWLYHNVEGFTDREEARKYA [R18E] here?
**A.** 3.84

**Q.** Which protein stability index does the source give for SDVVDWLYHNVEGFTDRDEARKYA [R18D] here?
**A.** 3.99

**Q.** With SDVVDWLYHNVEGFTDRHEARKYA [R18H] as the variant, how does the protein stability index read?
**A.** 3.41

**Q.** For SDVVDWLYHNVEGFTDRFEARKYA [R18F], which protein stability index is on record?
**A.** 2.35

**Q.** Which protein stability index does the source give for SDVVDWLYHNVEGFTDRCEARKYA [R18C] here?
**A.** 2.52

**Q.** With SDVVDWLYHNVEGFTDRGEARKYA [R18G] as the variant, how does the protein stability index read?
**A.** 2.38

**Q.** For SDVVDWLYHNVEGFTFRREARKYA [D16F], which protein stability index is on record?
**A.** 2.94

**Q.** For SDVVDWLYHNVEGFTARREARKYA [D16A], which protein stability index is on record?
**A.** 2.45

**Q.** Which protein stability index does the source give for SDVVDWLYHNVEGFTMRREARKYA [D16M] here?
**A.** 2.29

**Q.** For SDVVDWLYHNVEGFTYRREARKYA [D16Y], which protein stability index is on record?
**A.** 2.06

**Q.** Which protein stability index does the source give for SDVVDWLYHNVEGFTCRREARKYA [D16C] here?
**A.** 1.92

**Q.** Which protein stability index does the source give for SDVVDWLYHNVEGFTQRREARKYA [D16Q] here?
**A.** 3.19

**Q.** With SDVVDWLYHNVEGFTPRREARKYA [D16P] as the variant, how does the protein stability index read?
**A.** 3.74

**Q.** For SDVVDWLYHNVEGFTVRREARKYA [D16V], which protein stability index is on record?
**A.** 2.24

**Q.** For SDVVDWLYHNVEGFTLRREARKYA [D16L], which protein stability index is on record?
**A.** 2.07

**Q.** For SDVVDWLYHNVEGFTWRREARKYA [D16W], which protein stability index is on record?
**A.** 2.12

**Q.** Which protein stability index does the source give for SDVVDWLYHNVEGFTHRREARKYA [D16H] here?
**A.** 2.37

**Q.** With SDVVDWLYHNVEGFTERREARKYA [D16E] as the variant, how does the protein stability index read?
**A.** 3

**Q.** With SDVVDWLYHNVEGFTIRREARKYA [D16I] as the variant, how does the protein stability index read?
**A.** 3.24

**Q.** For SDVVDWLYHNVEGFTRRREARKYA [D16R], which protein stability index is on record?
**A.** 2.21

**Q.** Which protein stability index does the source give for SDVVDWLYHNVEGFTTRREARKYA [D16T] here?
**A.** 2.66

**Q.** Which protein stability index does the source give for SDVVDWLYHNVEGFTKRREARKYA [D16K] here?
**A.** 2.29

**Q.** Which protein stability index does the source give for SDVVDWLYHNVELFTDRREARKYA [G13L] here?
**A.** 2.28

**Q.** Which protein stability index does the source give for SDVVDWLYHNVEQFTDRREARKYA [G13Q] here?
**A.** 2.33

**Q.** For SDVVDWLYHNVEPFTDRREARKYA [G13P], which protein stability index is on record?
**A.** 3.2

**Q.** With SDVVDWLYHNVETFTDRREARKYA [G13T] as the variant, how does the protein stability index read?
**A.** 2.93

**Q.** With SDVVDWLYHNVEYFTDRREARKYA [G13Y] as the variant, how does the protein stability index read?
**A.** 2.1

**Q.** With SDVVDWLYHNVEFFTDRREARKYA [G13F] as the variant, how does the protein stability index read?
**A.** 1.61

**Q.** Which protein stability index does the source give for SDVVDWLYHNVECFTDRREARKYA [G13C] here?
**A.** 2.68

**Q.** For SDVVDWLYHNVEHFTDRREARKYA [G13H], which protein stability index is on record?
**A.** 2.56

**Q.** Which protein stability index does the source give for SDVVDWLYHNVERFTDRREARKYA [G13R] here?
**A.** 3.93

**Q.** With SDVVDWLYHNVEAFTDRREARKYA [G13A] as the variant, how does the protein stability index read?
**A.** 2.71

**Q.** With SDVVDWLYHNVESFTDRREARKYA [G13S] as the variant, how does the protein stability index read?
**A.** 2.96

**Q.** For SDVVDWLYHNVEVFTDRREARKYA [G13V], which protein stability index is on record?
**A.** 2.14

**Q.** Which protein stability index does the source give for SDVVDWLYHNVEDFTDRREARKYA [G13D] here?
**A.** 3.66

**Q.** For SDVVDWLYHNVEWFTDRREARKYA [G13W], which protein stability index is on record?
**A.** 2.52

**Q.** Which protein stability index does the source give for SDVVDWLYHNVEKFTDRREARKYA [G13K] here?
**A.** 2.95

**Q.** For SDVVDWLYHNVEMFTDRREARKYA [G13M], which protein stability index is on record?
**A.** 2.71

**Q.** With SDVVDWLYHNVEIFTDRREARKYA [G13I] as the variant, how does the protein stability index read?
**A.** 2.28

**Q.** For SDVVDWLYHNVEEFTDRREARKYA [G13E], which protein stability index is on record?
**A.** 3.3

**Q.** With SDVVDWLYHNVENFTDRREARKYA [G13N] as the variant, how does the protein stability index read?
**A.** 2.66

**Q.** For SDVVDWLYHNVYGFTDRREARKYA [E12Y], which protein stability index is on record?
**A.** 1.58
